{
  "source": "patent US20240058464A1",
  "about": "(Fortis Therapeutics, Inc., priority 2021, published 2024)",
  "molecules": {"B1": {"name": "pegfilgrastim (protein, chains of the INN, looked up)", "chain": "TPLGPASSLPQSFLLKCLEQVRKIQGDGAALQEKLCATYKLCHPEELVLLGHSLGIPWAPLSSCPSQALQLAGCLSQLHSGLFLYQGLLQALEGISPELGPTLDTLQLDVADFATTIWQQMEELGMAPALQPTQGAMPAFASAFQRRAGGVLVASHLQSFLEVSYRVLRHLAQP", "modifications": "PEG"}, "B2": {"name": "filgrastim (protein, chains of the INN, looked up)", "chain": "MTPLGPASSLPQSFLLKCLEQVRKIQGDGAALQEKLCATYKLCHPEELVLLGHSLGIPWAPLSSCPSQALQLAGCLSQLHSGLFLYQGLLQALEGISPELGPTLDTLQLDVADFATTIWQQMEELGMAPALQPTQGAMPAFASAFQRRAGGVLVASHLQSFLEVSYRVLRHLAQP"}},
  "test_system": "CD46 expression",
  "assay": "CD46 expression by RNA-sequencing in unpaired pre-treatment and post-treatment tumor biopsies",
  "format": "in vivo, human",
  "settings": "for CD46 expression diff: Post minus Pre, unpaired biopsies, log2-transformed counts; for CD46 expression Percentage change: post- vs pre-treatment unpaired biopsies; for CD46 expression Post: post-treatment biopsies, unpaired, RNA-seq log2-transformed normalized counts",
  "data": [
    {"molecule": "B1", "values": [
      {"measurement": "CD46 expression diff", "setting": "Breast Cancer", "value": "−0.13"},
      {"measurement": "CD46 expression Percentage change", "setting": "Breast Cancer", "value": "−2.1", "unit": "%"},
      {"measurement": "CD46 expression Post", "setting": "Breast Cancer", "value": 6.25},
      {"measurement": "CD46 expression diff", "setting": "Colorectal Cancer", "value": 0.29},
      {"measurement": "CD46 expression Percentage change", "setting": "Colorectal Cancer", "value": 4.6, "unit": "%"},
      {"measurement": "CD46 expression Post", "setting": "Colorectal Cancer", "value": 6.62},
      {"measurement": "CD46 expression diff", "setting": "Non-Small Cell Lung Cancer", "value": 0.07},
      {"measurement": "CD46 expression Percentage change", "setting": "Non-Small Cell Lung Cancer", "value": 1.2, "unit": "%"},
      {"measurement": "CD46 expression Post", "setting": "Non-Small Cell Lung Cancer", "value": 6.06}
    ]},
    {"molecule": "B2", "values": [
      {"measurement": "CD46 expression diff", "setting": "Breast Cancer", "value": 0.02},
      {"measurement": "CD46 expression Percentage change", "setting": "Breast Cancer", "value": 0.3, "unit": "%"},
      {"measurement": "CD46 expression Post", "setting": "Breast Cancer", "value": 6.23}
    ]}
  ]
}
